We go through 32 sequences from the supplement of paper PMC10201428.

Series [1] concerns VchCAST RNA-guided transposition machinery (E. coli BL21(DE3) host, lacZ target). The experiment in a line: relative integration efficiency (T-LR orientation) vs wild-type transposon end (log2 (normalized fold change)); transposon end mutated: right end (5 bp flank + 75 bp right end); higher = more efficient transposition. The essentials: (§1)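 Pools of 1549 left-end or 1849 right-end barcoded transposon variants were cloned into a pUC57 mini-transposon donor and co-transformed into E. coli BL21(DE3) with a T7-driven effector plasmid carrying a CRISPR array, tniQ-cas8-cas7-cas6 and tnsA-tnsB-tnsC. Plating used 0.1 mM IPTG at 37°C for 18 h, and input plasmids and genomic integration junctions were PCR-amplified for Illumina sequencing, with two biological output replicates and four reference barcodes. Relative integration efficiency is the log-transformed fold change of output over input barcode abundance, normalised to the reference barcodes.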

The test system is the same in series [2]. Description: relative integration efficiency (T-RL orientation) vs wild-type transposon end (log2 (normalized fold change)); transposon end mutated: right end (5 bp flank + 75 bp right end); higher = more efficient transposition. The essentials: as §1

± gives the standard deviation of the averaged measurements.

Take “ACATTTGTTGATACAACCATAAAATGATAATTACACCCATAAATTGATATTGCTCAGTGGGTATTTAACTATAACGCTCTGATCATAGTCAGACCAACATTGCTACGACCCGTATTCGCACCGACAC”: the “relative integration efficiency (log2)” value in series [1] was 2.58 ± 0.34; in series [2], -0.891 ± 0.23.

Consider “ACATTTGTTGATACAACCATAAAATGATAATTACACCCATAAATTGATCATTATCACCCCCAATTTAACTATAACGCTCTGATCATAGTCAGACCAACATTGCTACGACCCGTATTCGCACCGACAC”, for which the “relative integration efficiency (log2)” value in series [1] was 1.9 ± 0.065; in series [2], -1.35 ± 0.22.

On to “ACATTTGTTGATACAACCATAAAATGATAATTACACCCATAAATTGATCCGGATCACACCCATAAATTGATATTGCCTCTGATCATAGTCAGACCAACATTGCTACGACCCGTATTCGCACCGACAC”, for which the “relative integration efficiency (log2)” value in series [1] was -0.388 ± 0.14; in series [2], -0.929 ± 0.16.

As for “ACATTTGTTGATACAACCATAAAATGATAATTACACCCATAAATTGATCCGGCGACACAAACGCCCGGTCGCGGTAAGAGGATCATAGTCAGACCAACATTGCTACGACCCGTATTCGCACCGACAC”, the “relative integration efficiency (log2)” value is 2.09 ± 0.1 in series [1] and -0.942 ± 0.11 in series [2].

Regarding “ACATTTGTTGATACAACCATAAAATGATAATTACACCCATAAATTGATCCTTATCACACCCATAAATTGATATTGCCTCTGATCATAGTCAGACCAACATTGCTACGACCCGTATTCGCACCGACAC”, the “relative integration efficiency (log2)” value in series [1] was -0.418 ± 0.47; in series [2], -0.973 ± 0.3.

As for “ACATTTGTTGATACAACCATAAAATGATAATTACACCCATAAATTGATTCACACCCATAAATTGATATTGCCTCTGATCATAGTCAGACCAACATTGCTACGACCCGTATTCGCACCGACACTGACT”, the “relative integration efficiency (log2)” value in series [1] was 2.09 ± 0.12; in series [2], -1.49 ± 0.24.

For the sequence “ACATTTGTTGATACAACCATAAAATGATAATTACACCCATAAATTGATTTAAATCACACCCATAAATTGATATTGCCTCTGATCATAGTCAGACCAACATTGCTACGACCCGTATTCGCACCGACAC”, the results for the “relative integration efficiency (log2)” value in series [1] and in series [2] were -0.261 ± 0.15 and -0.801 ± 0.11, respectively.

On to “ACATTTGTTGATACAACCATAAAATGATAATTACACCCATAAATTGATTTTTATCACACCCATAAATTGATATTGCCTCTGATCATAGTCAGACCAACATTGCTACGACCCGTATTCGCACCGACAC”, for which the “relative integration efficiency (log2)” value in series [1] is 0.0005 ± 0.35; in series [2] it was -0.629 ± 0.28.

Consider “ACATTTGTTGATACAACCATAAAATGATAATTACACCCATAAATTGCGAATTATCACACCCATAAATTGATATTGCCTCTGATCATAGTCAGACCAACATTGCTACGACCCGTATTCGCACCGACAC”, for which the “relative integration efficiency (log2)” value in series [1] was -0.682 ± 0.11; in series [2] it was -0.3539 ± 0.00067.

Turning to “ACATTTGTTGATACAACCATAAAATGATAATTACACCCATAAATTGCGCCGGCGACACAAACGCCCGGTCGCGGTAAGAGGATCATAGTCAGACCAACATTGCTACGACCCGTATTCGCACCGACAC”, the figures for the “relative integration efficiency (log2)” value in series [1] and in series [2] were 1.62 ± 0.053 and -1.38 ± 0.23, respectively.

Consider “ACATTTGTTGATACAACCATAAAATGATAATTACACCCATAAATTGCGCCTTATCACACCCATAAATTGATATTGCCTCTGATCATAGTCAGACCAACATTGCTACGACCCGTATTCGCACCGACAC”, for which the “relative integration efficiency (log2)” value was -0.939 ± 0.25 in series [1] and -1.39 ± 0.2 in series [2].

For “ACATTTGTTGATACAACCATAAAATGATAATTACACCCATAAATTGTAAATTATCACACCCATAAATTGATATTGCCTCTGATCATAGTCAGACCAACATTGCTACGACCCGTATTCGCACCGACAC”, the “relative integration efficiency (log2)” value in series [1] was -0.553 ± 0.24; in series [2] it was -0.602 ± 0.1.

With “ACATTTGTTGATACAACCATAAAATGATAATTACACCCATAAATTGTATTTTATCACACCCATAAATTGATATTGCCTCTGATCATAGTCAGACCAACATTGCTACGACCCGTATTCGCACCGACAC”, the “relative integration efficiency (log2)” value in series [1] was -0.327 ± 0.39; in series [2] it was -0.924 ± 0.063.

In the case of “ACATTTGTTGATACAACCATAAAATGATAATTACACCCATAAATTTATTATTATCACACCCAATTTAACTATAACGCTCTGATCATAGTCAGACCAACATTGCTACGACCCGTATTCGCACCGACAC”, the “relative integration efficiency (log2)” value in series [1] was 1.56 ± 0.26; in series [2], -2.3 ± 0.59.

Consider “ACATTTGTTGATACAACCATAAAATGATAATTACACCCATAAATTTCGCATTATCACACCCATAAATTGATATTGCCTCTGATCATAGTCAGACCAACATTGCTACGACCCGTATTCGCACCGACAC”, for which the “relative integration efficiency (log2)” value in series [1] was -1.39 ± 0.6; in series [2], -1.91 ± 0.14.

In the case of “ACATTTGTTGATACAACCATAAAATGATAATTACACCCATAAATTTCGCCGGCGACACAAACGCCCGGTCGCGGTAAGAGGATCATAGTCAGACCAACATTGCTACGACCCGTATTCGCACCGACAC”, the entries for the “relative integration efficiency (log2)” value in series [1] and in series [2] were 0.788 ± 0.1 and -2.05 ± 0.15, respectively.

As for “ACATTTGTTGATACAACCATAAAATGATAATTACACCCATAAATTTCTAATTATCACACCCATAAATTGATATTGCCTCTGATCATAGTCAGACCAACATTGCTACGACCCGTATTCGCACCGACAC”, the “relative integration efficiency (log2)” value is -0.772 ± 0.23 in series [1] and -0.945 ± 0.17 in series [2].

With “ACATTTGTTGATACAACCATAAAATGATAATTACACCCATAACGGTATAATTATCACACCCATAAATTGATATTGCCTCTGATCATAGTCAGACCAACATTGCTACGACCCGTATTCGCACCGACAC”, the “relative integration efficiency (log2)” value in series [1] was -1.21 ± 0.31; in series [2], -1.01 ± 0.024.

Take “ACATTTGTTGATACAACCATAAAATGATAATTACACCCATAACGGTCGCCGGCGACACAAACGCCCGGTCGCGGTAAGAGGATCATAGTCAGACCAACATTGCTACGACCCGTATTCGCACCGACAC”: the figures for the “relative integration efficiency (log2)” value in series [1] and in series [2] were 0.674 ± 0.11 and -2.35 ± 0.24, respectively.

Regarding “ACATTTGTTGATACAACCATAAAATGATAATTACACCCATAACGTGATAATTATCACACCCATAAATTGATATTGCCTCTGATCATAGTCAGACCAACATTGCTACGACCCGTATTCGCACCGACAC”, the entries for the “relative integration efficiency (log2)” value in series [1] and in series [2] were 0.32 ± 0.18 and 0.496 ± 0.076, respectively.

As to “ACATTTGTTGATACAACCATAAAATGATAATTACACCCATAATAACATAATTATCACACCCATAAATTGATATTGCCTCTGATCATAGTCAGACCAACATTGCTACGACCCGTATTCGCACCGACAC”, the “relative integration efficiency (log2)” value was -1.45 ± 0.04 in series [1] and -2.11 ± 0.092 in series [2].

Consider “ACATTTGTTGATACAACCATAAAATGATAATTACACCCATAATATGATAATTATCACACCCATAAATTGATATTGCCTCTGATCATAGTCAGACCAACATTGCTACGACCCGTATTCGCACCGACAC”, for which the “relative integration efficiency (log2)” value in series [1] is -0.175 ± 0.045; in series [2], -0.297 ± 0.039.

In the case of “ACATTTGTTGATACAACCATAAAATGATAATTACACCCATAATTTGATAATTACCACTCCCAATTTAACTATAACGCTCTGATCATAGTCAGACCAACATTGCTACGACCCGTATTCGCACCGACAC”, the figures for the “relative integration efficiency (log2)” value in series [1] and in series [2] were 2.36 ± 0.071 and -1.09 ± 0.25, respectively.

“ACATTTGTTGATACAACCATAAAATGATAATTACACCCATACCGGGATAATTATCACACCCATAAATTGATATTGCCTCTGATCATAGTCAGACCAACATTGCTACGACCCGTATTCGCACCGACAC”: the entries for the “relative integration efficiency (log2)” value in series [1] and in series [2] were -2.1 ± 0.086 and -2.211 ± 0.0089, respectively.

Take “ACATTTGTTGATACAACCATAAAATGATAATTACACCCATACCGGTCGCCGGCGACACAAACGCCCGGTCGCGGTAAGAGGATCATAGTCAGACCAACATTGCTACGACCCGTATTCGCACCGACAC”: the “relative integration efficiency (log2)” value is 0.296 ± 0.13 in series [1] and -2.6 ± 0.11 in series [2].

As for “ACATTTGTTGATACAACCATAAAATGATAATTACACCCATACCTTGATAATTATCACACCCATAAATTGATATTGCCTCTGATCATAGTCAGACCAACATTGCTACGACCCGTATTCGCACCGACAC”, the “relative integration efficiency (log2)” value in series [1] is -0.978 ± 0.071; in series [2], -0.707 ± 0.089.

In the case of “ACATTTGTTGATACAACCATAAAATGATAATTACACCCATATTAAGATAATTATCACACCCATAAATTGATATTGCCTCTGATCATAGTCAGACCAACATTGCTACGACCCGTATTCGCACCGACAC”, the “relative integration efficiency (log2)” value is -0.688 ± 0.12 in series [1] and -0.6107 ± 0.0014 in series [2].

On to “ACATTTGTTGATACAACCATAAAATGATAATTACACCCATATTTTGATAATTATCACACCCATAAATTGATATTGCCTCTGATCATAGTCAGACCAACATTGCTACGACCCGTATTCGCACCGACAC”, for which the “relative integration efficiency (log2)” value was 0.00197 ± 0.1 in series [1] and -0.188 ± 0.015 in series [2].

On to “ACATTTGTTGATACAACCATAAAATGATAATTACACCCATCAATTGATAATTATCACACCCCATTTAACTATAACGCTCTGATCATAGTCAGACCAACATTGCTACGACCCGTATTCGCACCGACAC”, for which the “relative integration efficiency (log2)” value in series [1] was 1.6 ± 0.24; in series [2] it was -1.68 ± 0.23.

“ACATTTGTTGATACAACCATAAAATGATAATTACACCCATCAATTGATAATTATCCCACCCAATTTAACTATAACGCTCTGATCATAGTCAGACCAACATTGCTACGACCCGTATTCGCACCGACAC”: the “relative integration efficiency (log2)” value in series [1] was 1.54 ± 0.022; in series [2] it was -1.93 ± 0.31.

In the case of “ACATTTGTTGATACAACCATAAAATGATAATTACACCCATCAATTGATAATTATCCCACCCCATTTAACTATAACGCTCTGATCATAGTCAGACCAACATTGCTACGACCCGTATTCGCACCGACAC”, the “relative integration efficiency (log2)” value in series [1] was 1.52 ± 0.21; in series [2] it was -2.54 ± 0.3.

As to “ACATTTGTTGATACAACCATAAAATGATAATTACACCCATCCATTGATAATTATCACACCCATAAATTGATATTGCCTCTGATCATAGTCAGACCAACATTGCTACGACCCGTATTCGCACCGACAC”, the “relative integration efficiency (log2)” value is -1.63 ± 1 in series [1] and -1.21 ± 0.089 in series [2].
